For this experiment, the target named is T1, JIP4[1-103] (human, UniProt O60271-1 1-103).
T1 chain: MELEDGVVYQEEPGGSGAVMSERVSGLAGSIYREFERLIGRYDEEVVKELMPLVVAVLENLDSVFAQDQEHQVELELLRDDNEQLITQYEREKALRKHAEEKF
In words: ITC.

B1: DLIC1[388-523] (domain or fragment)
chain: PTAAGRPVDASPRVPGGSPRTPNRSVSSNVASVSPIPAGSKKIDPNMKAGATSEGVLANFFNSLLSKKTGSPGGPGVSGGSPAGGAGGGSSGLPPSTKKSGQKPVLDVHAELDRITRKPVTVSPTTPTSPTEGEAS
In turn, B1 displayed a Kd of 4.5 µM.

(Values after doi:10.1101/2021.10.11.463801 (2021).)
